Data as given in patent publication US20170240633A1 (published 2017).
Like-named read-outs stand apart in the source and are kept apart here.

Columns and labels:
[1] = target: T1, human TIM-3 coupled to human Fc (human, UniProt Q8TDQ0 22-200); assay: SPR
[2] = target: T1, human TIM-3 coupled to human Fc; assay: SPR; remark: listed apart in the source

| Binder | Kd [1] | Kd [2] |
| --- | --- | --- |
| anti-TIM-3 antibody clone G6 (antibody, V domains shown) VH: QVQLQESGPGLVKPSGTLSLTCAVSGGSISSSNWWSWVRQPPGKGLEWIGEIYHSGSTNYNPSLKSRVTISVDKSKNQFSLKLSSVTAADTAVYYCARVVAVAGTVDYWGQGTLVTVSS VL: not shown | 2520 pM |  |
| anti-TIM-3 antibody clone G9 (antibody, V domains shown) VH: QVQLQQSGAEVKKPGASVKVSCKASGYTFTSYYMHWVRQAPGQGLEWMGIINPSGGSTSYAQKFQGRVTMTRDTSTSTVYMELSSLRSEDTAVYYCARDLYSYGFYYYGMDVWGQGTTVTVSS VL: not shown | 630 pM |  |
| anti-TIM-3 antibody clone A11 (antibody, V domains shown) VH: QVQLQQWGAGLLKPSETLSLTCAVYGGSFSGYYWSWIRQPPGKGLEWIGEINHSGSTNYNPSLKSRVTISVDTSKNQFSLKLSSVTAADTAVYYCARGYVAGFDYWGQGTLVTVSS VL: QSVVTQPPSVSAAPGQKVTISCSGSSSNIGNNYVSWYQQLPGTAPKLLIYGNNWRPSGIPDRFSGSKSGTSATLAISGLQTGDEADYYCETWDSSLSAGVFGGGTKLTVL |  | 1260 pM |

Continued, values first:

| Kd [1] | Kd [2] | Binder |
| --- | --- | --- |
| 260 pM |  | anti-TIM-3 antibody clone B10 (antibody, V domains shown) VH: QVQLQESGPGLVKASETLSLTCTVSGGSIGSSDYYWGWIRQPPGKGLEWIGSIYYSGSTYYNPSLKSRVTMSVDTPNNQFSLKLSSVTAADTAVYYCARGEHRGEFDYWGQGTLVTVSS VL: EIVLTQSPATLSFSPGERATLSCRASQSVGSYLAWYQQRPGQAPRPLIYDATNRATGIPTRFSGSGSGTDFTLTISSLEPEDFATYYCQHRRTFGRGTKLEIK |
| 620 pM |  | anti-TIM-3 antibody clone G7 (antibody, V domains shown) VH: EVQLVQSGAEVKKPGASVKVSCKASGYTFTSYYMHWVRQAPGQGLEWMGIINPSGGSTSYAQKFQGRVTMTRDTSTSTVYMELSSLRSEDTAVYYCARDQYSSGWYYYGMDVWGQGTTVTVSS VL: not shown |
| 440 pM |  | anti-TIM-3 antibody clone A3 (antibody, V domains shown) VH: QVQLVQSGAEVKKPGASVKVSCKASGYTFTSYYMHWVRQAPGQGLEWMGIINPSGGSTSYAQKFQGRVTMTRDTSTSTVYMELSSLRSEDTAVYYCARSPGVVTALFDYWGQGTLVTVSS VL: DIQMTQSPSFMSASVGDRVTITCRASQDIGSYLAWYQQKPGKAPKLLIYAASTLQSGVPSRFSGSGSGTDFTLTINSLQPEDFATYYCQQSYSSPPTFGPGTTLEIK |
